Measured values as given in patent publication US20050080013A1 (Pfizer, published 2005).
Non-standard residues stand in square brackets, D forms with d. No end group written: not given here. Aib = CC(C)(N)C(=O)O

target: T1, lecithin:cholesterol acyltransferase (LCAT), purified from human plasma (human, UniProt P04180 25-440); experiment: cell-based or functional assay
T1 sequence (looked up): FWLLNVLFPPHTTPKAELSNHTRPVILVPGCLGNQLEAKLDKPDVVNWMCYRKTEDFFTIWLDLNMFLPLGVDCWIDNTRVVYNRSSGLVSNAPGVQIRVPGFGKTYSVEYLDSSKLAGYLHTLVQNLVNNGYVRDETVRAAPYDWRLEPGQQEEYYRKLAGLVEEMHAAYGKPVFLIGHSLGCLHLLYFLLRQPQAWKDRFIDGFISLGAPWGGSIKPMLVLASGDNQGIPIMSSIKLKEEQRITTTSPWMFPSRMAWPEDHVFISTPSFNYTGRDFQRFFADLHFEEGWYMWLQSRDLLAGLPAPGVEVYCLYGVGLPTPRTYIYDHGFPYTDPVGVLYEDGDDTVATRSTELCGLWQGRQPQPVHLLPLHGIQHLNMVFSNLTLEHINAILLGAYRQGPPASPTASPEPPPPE

Row | Binder | ACTIVITY (%) LCAT
1 | PWLDEFREKLNE[Aib]LEALKQKLK [peptide 64] | 15%
2 | VLDEFREKLNE[Aib]LEALKQKLK [peptide 65] | 15%
3 | PVLDLFRNLLEELLEALQKKLK [peptide 66] | 15%
4 | VLDLFRELLNELLEALKQKLK [peptide 67] | 14%
5 | PVLDEFRELLKE[Aib]LEALKQKLK [peptide 68] | 14%
6 | PVLDEFRKKLNE[Aib]LEALKQKLK [peptide 69] | 13%
7 | PVLDLFKELLNELLEALKQKLK [peptide 7] | 83%
8 | PVLDEFRELLYE[Aib]LEALKQKLK [peptide 70] | 12%
9 | PVLDEFREKLNEL[Aib]EALKQKLK [peptide 71] | 11%
10 | PVLDLFRELLNE[Aib]LWALKQKLK [peptide 72] | 11%
11 | PVLDEFWEKLNE[Aib]LEALKQKLK [peptide 73] | 10%
12 | PVLDKFREKLNE[Aib]LEALKQKLK [peptide 74] | 10%
13 | PVLDEFREKLNEELEALKQKLK [peptide 75] | 10%
14 | PVLDEFRELLFE[Aib]LEALKQKLK [peptide 76] | 9%
15 | PVLDEFREKLNK[Aib]LEALKQKLK [peptide 77] | 9%
16 | PVLDEFRELLNELLEALKQKLK [peptide 79] | 9%
17 | PVLDLFERLLNELLEALQKKLK [peptide 80] | 9%
18 | PVLDLFRELLNEGLEALKQKLK [peptide 8] | 83%
19 | LDEFREKLNE[Aib]LEALKQKLK [peptide 82] | 8%
20 | PVLDEFREKLNELLEALKQKLK [peptide 84] | 7%

Row | Binder | ACTIVITY (%) LCAT
21 | PLDLFRELLNELLEALKQKLK [peptide 85] | 7%
22 | PVLELFERLLDELLNALQKKLK [peptide 86] | 7%
23 | [dP][dL][dL][dE][dL][dL][dK][dE][dL][dL][dQ][dE][dL][dL][dE][dA][dL][dK][dQ][dK][dL][dK] [peptide 87] | 7%
24 | PVLDKFRELLNE[Aib]LEALKQKLK [peptide 88] | 7%
25 | PVLDEFREKLNE[Aib]LWALKQKLK [peptide 89] | 6%
26 | DEFREKLNE[Aib]LEALKQKLK [peptide 90] | 6%
27 | PVLDEFRELLNE[Aib]LEALKQKLK [peptide 91] | 6%
28 | PVLDEFRELYNE[Aib]LEALKQKLK [peptide 92] | 5%
29 | PVLDLFRELGNELLEALKQKLK [peptide 9] | 83%
30 | PVLDEFREKLNE[Aib]LKALKQKLK [peptide 93] | 5%
31 | PVLDEFREKLNEALEALKQKLK [peptide 94] | 5%
32 | PVLDLFRELLNL[Aib]LEALKQKLK [peptide 95] | 5%
33 | [dP][dV][dL][dD][dL][dF][dR][dE][dL][dL][dN][dE][Aib][dL][dE][dA][dL][dK][dQ][dK][dL][dK] [peptide 96] | 5%
34 | PVLDLFRELLNELLE [peptide 97] | 4%
35 | PVLDLFRELLNEELEALKQKLK [peptide 98] | 2%
36 | KLKQKLAELLENLLERFLDLVP [peptide 99] | 2%
37 | [dP][dV][dL][dD][dL][dF][dR][dE][dL][dL][dN][dE][dL][dL][dE][dA][dL][dK][dQ][dK][dL][dK] [peptide 100] | 2%
38 | PVLDLFRELLNW[Aib]LEALKQKLK [peptide 101] | 2%
39 | PVLDLFRELLNL[Aib]LEALKEKLK [peptide 102] | 2%
